Biological target: CARD11^8–172 (human) (UniProt Q9BXL7)
Experiment: SEC-MALS; CARD11^8–172 alone; measured 36.5 kDa against 39.4 kDa expected for a dimer

stoichiometry N: 2
Substance: CARD11^8–172 (from UniProt Q9BXL7 8-172) (domain or fragment)

— article PMC6624267
